Sequences and labels used below:
B3: C9orf72 (subunit of the C9orf72:ARF1-SMCR8:WDR41 complex) (natural protein)
chain: MSTLCPPPSPAVAKTEIALSGKSPLLAATFAYWDNILGPRVRHIWAPKTEQVLLSDGEITFLANHTLNGEILRNAESGAIDVKFFVLSEKGVIIVSLIFDGNWNGDRSTYGLSIILPQTELSFYLPLHRVCVDRLTHIIRKGRIWMHKERQENVQKIILEGTERMEDQGQSIIPMLTGEVIPVMELLSSMKSHSVPEEIDIADTVLNDDDIGDSCHEGFLLNAISSHLQTCGCSVVVGSSAEKVNKIVRTLCLFLTPAERKCSRLCEAESSFKYESGLFVQGLLKDSTGSFVLPFRQVMYAPYPTTHIDVDVNTVKQMPPCHEHIYNQRRYMRSELTAFWRATSEEDMAQDTIIYTDESFTPDLNIFQDVLHRDTLVKAFLDQVFQLKPGLSLRSTFLAQFLLVLHRKALTLIKYIEDDTQKGKKPFKSLRNLKIDLDLTAEGDLNIIMALAEKIKPGLHSFIFGRPFYTSVQERDVLMTF
notes: C9orf72; not shown: GST, N-terminal, cleaved

Details in all cases: both partners purified
Test [1] deals with T1, SMCR8 of the STREP-STREP-FLAG-ARF1-SMCR8 fusion (UniProt Q8TEV9 1-937).
T1 construct: SMCR8; In the structure its N-terminus is joined to the C terminus of ARF1 E17-K181, which carries the N-terminal STREP-STREP-FLAG tag, on one chain; also called Smith-Magenis chromosome regions 8
T1 sequence: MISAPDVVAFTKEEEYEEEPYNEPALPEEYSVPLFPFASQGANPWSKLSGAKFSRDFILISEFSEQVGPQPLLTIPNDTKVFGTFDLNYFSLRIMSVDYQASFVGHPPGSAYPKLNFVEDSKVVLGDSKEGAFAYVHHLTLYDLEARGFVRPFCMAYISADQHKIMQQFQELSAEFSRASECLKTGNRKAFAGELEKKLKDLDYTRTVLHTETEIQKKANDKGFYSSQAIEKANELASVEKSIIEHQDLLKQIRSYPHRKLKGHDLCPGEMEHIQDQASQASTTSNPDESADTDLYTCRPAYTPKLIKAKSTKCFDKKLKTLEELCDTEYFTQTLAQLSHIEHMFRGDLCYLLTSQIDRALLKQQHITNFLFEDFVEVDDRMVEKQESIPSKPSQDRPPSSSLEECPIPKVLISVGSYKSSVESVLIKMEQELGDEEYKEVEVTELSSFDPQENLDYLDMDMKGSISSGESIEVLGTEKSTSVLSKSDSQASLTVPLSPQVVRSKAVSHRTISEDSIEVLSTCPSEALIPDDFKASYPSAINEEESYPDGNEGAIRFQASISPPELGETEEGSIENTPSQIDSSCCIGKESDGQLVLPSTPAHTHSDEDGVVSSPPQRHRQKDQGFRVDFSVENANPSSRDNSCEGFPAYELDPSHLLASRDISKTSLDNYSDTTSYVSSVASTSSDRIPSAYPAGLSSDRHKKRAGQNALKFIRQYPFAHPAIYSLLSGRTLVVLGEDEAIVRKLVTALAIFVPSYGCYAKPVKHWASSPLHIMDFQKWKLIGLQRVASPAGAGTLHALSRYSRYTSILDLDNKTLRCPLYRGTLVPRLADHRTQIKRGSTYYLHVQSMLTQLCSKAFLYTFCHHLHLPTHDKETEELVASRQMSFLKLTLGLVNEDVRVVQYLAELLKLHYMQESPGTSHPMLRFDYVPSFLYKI
Briefly: cryo-EM structure; chimeric C9orf72:ARF1-SMCR8:WDR41 complex, GDP-bound, incubated with BeF3^- overnight; 20 mM HEPES pH 7.4, 200 mM NaCl, 2 mM MgCl2, 0.5 mM TCEP; 3.9 Å reconstruction.

The target of test [2] is B3. Described as above.
The target of test [3] is T2, C9orf72:SMCR8:WDR41 complex (wild type) (UniProt Q96LT7 1-481; Q8TEV9 1-937; Q9HAD4 1-459).
T2 construct: C9orf72; SMCR8 (Smith-Magenis chromosome regions 8); WDR41 (WD repeat-containing protein 41), cloned without a tag; The methods describe the purification for the fusion complex; also called C9orf72 complex; GAP complex; not shown: GST, N-terminal, cleaved; copies: + +
The test can be described thus: SEC; 15 μM C9orf72:SMCR8:WDR41 incubated with 15-fold ARF1^Q71L in 500 μl overnight, injected into Superose 6 Increase 10/300.

B1: WDR41 (subunit of the C9orf72:ARF1-SMCR8:WDR41 complex) (natural protein)
chain: MLRWLIGGGREPQGLAEKSPLQTIGEEQTQNPYTELLVLKAHHDIVRFLVQLDDYRFASAGDDGIVVVWNAQTGEKLLELNGHTQKITAIITFPSLESCEEKNQLILTASADRTVIVWDGDTTRQVQRISCFQSTVKCLTVLQRLDVWLSGGNDLCVWNRKLDLLCKTSHLSDTGISALVEIPKNCVVAAVGKELIIFRLVAPTEGSLEWDILEVKRLLDHQDNILSLINVNDLSFVTGSHVGELIIWDALDWTMQAYERNFWDPSPQLDTQQEIKLCQKSNDISIHHFTCDEENVFAAVGRGLYVYSLQMKRVIACQKTAHDSNVLHVARLPNRQLISCSEDGSVRIWELREKQQLAAEPVPTGFFNMWGFGRVSKQASQPVKKQQENATSCSLELIGDLIGHSSSVEMFLYFEDHGLVTCSADHLIILWKNGERESGLRSLRLFQKLEENGDLYLAV
notes: WDR41, cloned without a tag; also called WD repeat-containing protein 41
For B1, the binding result in test [1] is listed as “binds”.

B2: ARF1 (residues E17-K181) of the STREP-STREP-FLAG-ARF1-SMCR8 fusion (domain or fragment)
chain: not shown
notes: ARF1, residues E17-K181; In the structure this ARF1 is joined by its C terminus to the N-terminus of SMCR8 on one chain (STREP-STREP-FLAG-ARF1-SMCR8, inserted by KpnI sites); also called ARF1-GDP-BeF3^-
Take B2: the binding result in test [1] and in test [2] was “binds” each time. For the molecule B3, in test [1], the binding result is on record as “binds”.

B4: ARF1^Q71L (residues E17-K181), GTP-locked mutant (domain or fragment)
chain: not shown
notes: ARF1, residues E17-K181 (N-terminal myristoylated amphipathic helix removed); source: E. coli BL21 DE3 star, purified (Ni-NTA, Superdex 75)
For the molecule B4, the binding result in test [3] is recorded as “binds”.
